One protein from FireProtDB (doi:10.1093/protein/9.5.425) can be followed below.

For this data set the following is noted: Escherichia coli (strain K12); pH 9; 50 °C; Thermal; DSC; Sodium tetraborate 1 mM; reversible: yes; whole UniProt chain shown.

B1: Tryptophan synthase alpha chain wild type, P0A877 (protein)
chain: MERYESLFAQLKERKEGAFVPFVTLGDPGIEQSLKIIDTLIEAGADALELGIPFSDPLADGPTIQNATLRAFAAGVTPAQCFEMLALIRQKHPTIPIGLLMYANLVFNKGIDEFYAQCEKVGVDSVLVADVPVEESAPFRQAALRHNVAPIFICPPNADDDLLRQIASYGRGYTYLLSRAGVTGAENRAALPLNHLVAKLKEYNAAPPLQGFGISAPDQVKAAIDAGAAGAISGSAIVKIIEQHINEPEKMLAALKVFVQPMKAATRS
For B1, the “heat capacity change of unfolding” value was 4.81 kcal/mol/K and the unfolding free energy is 1.17 kcal/mol.
